How the values were obtained:
[1] = target: CEACAM1 in a cancer specimen having a high value of CEACAM1 (human) (UniProt P13688); experiment: CLEIA sandwich without denaturation: 283324 on magnetic particles, biotin-labeled BAF2244 as detector; competitor AF2244 30 ug/mL added to a cancer specimen (FIG. 12)
[2] = target: commercially available recombinant antigen CEACAM1 (R&D Systems) (UniProt P13688); experiment: ELISA on CEACAM1 coated in PBS; antibody 0.1 ug/mL with against without 10 ug/mL competitor polyclonal AF2244

| quantitative value with the polyclonal antibody added (+) against not added (-) [1] [%] | binding rate by addition of anti-CEACAM1 polyclonal antibody [2] [%] | Substance |
| --- | --- | --- |
| 3 | 41 | anti-CEACAM1 antibody 283324 (R&D Systems) |
|  | 44.8 | biotin-labeled anti-CEACAM1 antibody BAF2244 (R&D Systems) |
